Measurements: patent publication US5780221A, “Identification of enantiomeric ligands” (Whitehead Institute for Biomedical Research, priority 1996, dated 1998)
Square brackets hold non-standard residues; d marks the D form. Ends that are not written are not given here.

Columns and labels:
(D)-Src SH3 domain [1] = target: T1, (D)-Src SH3 domain (Gallus gallus, UniProt P00523); experiment: Screening (selection rounds) of the phage library with the (D)-SH3 domain; type: binding, chicken; conditions: for Number of Isolates, low stringency: 4 rounds, 16 hrs phage incubation, washes 3', 5', 10' in rounds 2-4; for isolates after four rounds of selection: 29 clones sequenced after four rounds
Description: The all D amino acid SH3 domain, sequence […] S-COOH-terminus (SEQ ID No: 1), residues 81-140 of chicken c-SRC, was synthesized on HMP resin (ABI/Perkin Elmer) with an ABI 431A peptide synthesizer and ABI fastmoc cycles (Fmoc chemistry with HBTU activation and capping with acetic anhydride). Protected D-amino acids were obtained from Bachem California., Bachem Bioscience, Advanced Chemtech, and Novabiochem. For D-Ile and D-Thr, the side chain enantiomers were used, in which the chirality of the side chain is also inverted relative to naturally occurring L-Thr and L-Ile. After completion of the synthesis, the NH2 -terminus of the peptide was modified with NHS-LC-biotin II (Pierce). After cleavage, the peptide was lyophilized, dissolved in 6 M guanidine HCl, pH 6.0, and dialyzed against 100 mM NaHPO4 and 100 mM NaCl, pH 6.0, with the use of dialysis tubing with a molecular cutoff of 3,500 daltons (D) (Spectra/Por). After dialysis the material was spun briefly to remove insoluble debris, and the supernatant was subsequently dialyzed against 5% acetic acid and lyophilized. The peptide was dissolved at a concentration of 3.3 mg/ml in Tris-buffered saline (50 mM Tris, pH 7.5, and 150 mM NaCl) containing 1 mM biotin. The full biotinylated 60 amino acid (D)-SH3 domain length product was refolded and purified by affinity chromatography on an all-(D) version of a known substrate for the Src SH3 domain (D)-[…] (SEQ ID NO:2), Yu, H., et al., Cell, 76:933 (1994)), that was biotinylated and immobilized on a streptavidin-agarose column (Pierce). This peptide is a derivative of an all (L)-peptide shown to bind to the all (L)-SH3 domain (Yu, H., et al., Cell,76:933-945 (1994)), with an NH2 -terminal YGG added to facilitate concentration determination (H. Edelhoch, Biochemistry, 6:1948 (1967)). The L-peptide with the same NH2 -terminal YGG served as a control ligand in the experiments.
Single wells of a flatbottom 96 well high binding E.I.A./R.I.A. plate (Costar) were coated overnight with 10 μg streptavidin (Pierce) in 100 μl 100 mM NaHCO3 at 4° C. After a single wash with water, wells were incubated with 100 μl (10.7 μg) of biotinylated (D)-SH3 for 1 hr. at 20° C., blocked for 2 hrs with 30 mg/ml dialyzed bovine serum albumin (BSA) in 100 mM NaHCO3, and again incubated with 100 μl ([…]) of biotinylated (D)-SH3 for 1 hr. Unliganded streptavidin was blocked for 30 minutes by the addition of 8 μl 5 mM biotin in tris-buffered saline (TBS). Wells were subsequently washed 5 times with phosphate buffered saline (PBS) and 0.1% Tween-20, and incubated overnight with 50 μl of the phage stock in TBS/NaN3 and 50 μl of TBS, 0.1% Tween-20, 1 mg/ml BSA and 0.05% NaN3. Wells were subsequently washed by six additions of 200 μl of TBS, 0.1% Tween-20 and 1 mg/ml BSA with increasing incubation times in the later rounds of the selection procedure. (D)-SH3 bound phage particles were subsequently eluted by the addition of 100 μl D-SH3 ligand peptide (715 μM), sequence D-[…]-amide (SEQ ID No: 2), for 15 minutes at 4° C., at a final concentration of 700 to 1000 μM peptide. Acid elution of phages in this screen gives no detectable preferential binding to D-SH3 coated wells after four rounds of selection. The eluate was subsequently used to infect K91-kan cells. Briefly 100 μl eluate was mixed with 100 μl K91 Terrific Broth cells (prepared as described) an incubated for 20 minutes at room temperature. The mixture was subsequently transferred into an Erlenmeyer flask containing 20 ml LB/0.2 μg/ml tetracycline. After 1 hr incubation while shaking at 37° C., tetracycline was added to a final concentration of 20 μg/ml, appropriate dilutions were plated on tetracycline-containing plates ([…]) to determine the titer of the eluate and the culture was incubated at 37° C. for 12-16 hrs. Phage were isolated from the supernatant by two PEG precipitations and the resulting phage stock was used for titering to determine the yield, and for the subsequent round of selection. […]

L-SH3 domain [2] = target: T2, L-SH3 domain (Gallus gallus, UniProt P00523); experiment: Screening of the phage library with the L-SH3 domain; type: binding, chicken
T2 construct: Residues 81 to 140 of chicken c-SRC were cloned; modified TrpLE leader (Met to Leu, Cys to Ala) (N, cleaved yes); His9 within the C-terminal region of the TrpLE leader (N, cleaved yes); made in house; host or cells: Escherichia coli BL21(DE3) pLysS, plasmid pMMHb-SRC SH3
Protocol: Phage display with the L-SH3 domain was also assessed. When the (L)-SH3 domain is used to screen a phage library (A12) for interacting sequences the poly-proline sequences that have been observed by others Rickles, R. J., et al., EMBO J., 13:5598 (1994); Sparks, A. B., J. Biol. Chem., 39:23853 (1994); Cheadle, C., et al., Ibid, 39:24034 (1994) are isolated.
The sequences of these peptides have features consistent with those described for class I and class II ligands of the SH3 domain ((Yu, H., et al., Cell, 76:933 (1994); Rickles, R. J. et al., EMBO J., 13:5598 (1994; Sparks, A. B., et al., J. Biol. Chem., 269:23853 (1994); Cheadle, C., et al., ibid., p. 24034)).

(D)-Src SH3 domain [3] = target: T1, (D)-Src SH3 domain; experiment: Screening (selection rounds) of the phage library with the (D)-SH3 domain; type: binding, chicken; conditions: for Number of Isolates, high stringency: 4 rounds, 2 fold less (D)-Src SH3, 1 hr phage incubation, washes 10' in rounds 2-4
(L)-SH3 = target: T3, (L)-SH3 (Gallus gallus, UniProt P00523); experiment: Retention of bacterially expressed (L)-SH3 on peptide affinity column; type: binding; conditions: residues 81-140 of chicken c-Src
T3 construct: E. coli BL21(DE3) pLysS, pMMHb TrpLE-His9 fusion, cleaved with CNBr
Protocol: The L- and D-enantiomers of the chicken c-SRC domain were prepared by bacterial expression and chemical synthesis, respectively. The biotinylated, synthetic, 60-amino acid D-SH3 domain was refolded and purified by affinity chromatography, with a D-amino acid version of a known peptide ligand for the SH3 domain (Yu, H., et al., Cell, 76:933 (1994)).
The all D amino acid SH3 domain, sequence […] S-COOH-terminus (SEQ ID No: 1), residues 81-140 of chicken c-SRC, was synthesized on HMP resin (ABI/Perkin Elmer) with an ABI 431A peptide synthesizer and ABI fastmoc cycles (Fmoc chemistry with HBTU activation and capping with acetic anhydride). Protected D-amino acids were obtained from Bachem California., Bachem Bioscience, Advanced Chemtech, and Novabiochem. For D-Ile and D-Thr, the side chain enantiomers were used, in which the chirality of the side chain is also inverted relative to naturally occurring L-Thr and L-Ile. After completion of the synthesis, the NH2 -terminus of the peptide was modified with NHS-LC-biotin II (Pierce). After cleavage, the peptide was lyophilized, dissolved in 6 M guanidine HCl, pH 6.0, and dialyzed against 100 mM NaHPO4 and 100 mM NaCl, pH 6.0, with the use of dialysis tubing with a molecular cutoff of 3,500 daltons (D) (Spectra/Por). […]

L-SH3 domain [4] = target: T2, L-SH3 domain; experiment: ELISA and NMR binding check of D-amino acid version of background sequence; design: species or system chicken; conditions: as judged by ELISA and NMR studies
[5] = target: T4, lectin concanavalin A (Con A) (Canavalia ensiformis, UniProt P02866); experiment: Con A screen of the phage library; type: binding; conditions: after 3 rounds
T4 construct: mature circularly permuted chain
Protocol: The library was made by ligation of a random PCR product into Sfi I-cut Fuse 5 vector. After ligation the reaction mixture was extracted with phenol and chloroform, ethanol-precipitated and taken up in 10 mM Tris/1 m mM EDTA (pH 8.0). The ligation product was subsequently transferred into electrocompetent MC1061 cells (Biorad) using a Bio-Rad E. coli pulser and 0.1 cm cuvettes. After non-restrictive growth for 1 hr aliquots of transformed cells were plated on tetracycline-containing plates to determine the efficiency of transformation, yielding an initial library of 3.6×108 transformants. The transformation mixture was subsequently diluted to a volume of 400 ml LB and 20 μg/ml tetracycline, and grown for an additional 14 hrs. A phage stock was prepared by two successive polyethylene glycol (PEG) precipitations of the culture supernatant as described. The phage stock was finally resuspended in tris buffered saline/NaN3 and titered by infection of K91-kan cells (A21), yielding a total of 2.8×10^11 transforming units. The randomness of the inserts was confirmed by sequencing of individual clones. 4×10^10 transforming units were subsequently used to infect K91-kan cells to generate an amplified library. After 18 hrs phage were purified by three repetitive PEG precipitations yielding 10 ml of the amplified phage library (1.2-10^12 transforming units/ml) in TBS/NaN3. […]

[6] = test system: synthetic D-vasopressin (DVP); experiment: Affinity chromatography on D-vasopressin (DVP) resin, in vitro selection of ssDNAs; type: binding; conditions: for binding to DVP: affinity chromatography, positive ssDNA
Description: In the first step toward generating an antagonist of the peptide hormone L-vasopressin, an in vitro selection was used to isolate single-stranded DNAs (ssDNAs) that bind synthetic D-vasopressin (DVP). A starting pool of 10^16 different 96-mers was synthesized on a DNA synthesizer. Each pool molecule contained a central region with 60 random-sequence positions that was flanked by two 18-nt defined regions. Molecules within this starting pool that bind DVP were enriched by affinity chromatography. The affinity resin was prepared by coupling biotinylated DVP to streptavidin agarose. The ssDNA pool was radiolabeled, denatured, renatured in a physiological buffer and passed over this resin. […] Eluted pool was amplified by PCR using a negative-strand "primer-terminator", that is, an oligonucleotide bearing a central segment of non-nucleotide material that blocks further extension of the positive strand (Williams, K. P. and Bartel, D. P., Nucleic Acids Res., 23:4220-4221 (1995)). Such PCR results in a substantial size difference between the two product strands, facilitating gel-purification of the positivestrand ssDNA pool. This combination of affinity chromatography and PCR constituted one cycle of selection amplification.
After thirteen iterations of the selectionamplification cycle the pool was cloned. […] Positive ssDNA of each sequence binds DVP and both have potential to form very similar secondary structures.

## CAYGFKLGLIKC [clone has alanine to arginine substitution directly amino terminal to the insert]
(D)-Src SH3 domain [1]
  Number of Isolates, low stringency: 1

## CLARSRLPAIPS
L-SH3 domain [2]
  isolates after four rounds of selection with the L-SH3 domain: nine

## CLMGLRLGLLPC
(D)-Src SH3 domain [1]
  Number of Isolates, low stringency: 4
(D)-Src SH3 domain [3]; fifth round with neutravidin as a matrix
  sequences revealed after fifth round of selection: only sequences of the fdSRC-2-type

## CLSGLRLGLVPC
(D)-Src SH3 domain [1]
  Number of Isolates, low stringency: 2

## SRMSPLVPLRNS
L-SH3 domain [2]
  isolates after four rounds of selection with the L-SH3 domain: one

## (D)-YGGRELPPLPRF ([dY]GG[dR][dE][dL][dP][dP][dL][dP][dR][dF]; also: biotinylated, site not given here) [all-(D) version of a known substrate for the Src SH3 domain]
(L)-SH3
  retention of bacterially expressed (L)-SH3 on peptide column: not on the (D)-enantiomer

## CWYLGYWPGQEC
(D)-Src SH3 domain [1]
  Number of Isolates, low stringency: 12
  isolates after four rounds of selection: 12 isolates

## CKRFVWRGQALC
(D)-Src SH3 domain [1]
  Number of Isolates, low stringency: 10
  isolates after four rounds of selection: 10 isolates
(D)-Src SH3 domain [3]
  Number of Isolates, high stringency: 14

## D-amino acid version of this sequence: D-amino acid version of CKRFVWRGQALC (SEQ ID No: 13) ([dC][dK][dR][dF][dV][dW][dR]G[dQ][dA][dL][dC]; cysteine pairing not given here)
L-SH3 domain [4]
  binding to the L-SH3 domain: fails to bind to the L-SH3 domain

## CSRASWRGLLFC
(D)-Src SH3 domain [3]
  Number of Isolates, high stringency: 1

## AS M W M Y P Y P W G V SA (ASMWMYPYPWGVSA)
[5]
  number in parentheses after sequence, Con A screen: 9

## AS W R Y N Y A F M R Y SA (ASWRYNYAFMRYSA)
[5]
  number in parentheses after sequence, Con A screen: 1

B1: 96.4: D-vasopressin aptamer, ssDNA 96-mer (nucleic acid)
chain: TCTAACGTGAATGATAGACGTTACGTGTCTACACTATGTCGAGTTGCTGTGTGCCGATGAACGTGGGATTAGAGCGTGTTAACTTATTCGACCAAA
modifications: DNA, backbone not given here
notes: D-vasopressin aptamer, ssDNA 96-mer
[6]
  binding to DVP: binds DVP

B2: 96.2: D-vasopressin aptamer, ssDNA 96-mer (nucleic acid)
chain: TCTAACGTGAATGATAGACGGCGAATCCCCAATGCGAAGCAGTGGTTTTGCAGTCGAGTTGCTGTGTGCCGATGAGCGTTAACTTATTCGACCAAA
modifications: DNA, backbone not given here
notes: as for B1
[6]
  binding to DVP: binds DVP

B3: 69.1: D-vasopressin aptamer, deletion derivative of 96.4 (nucleic acid)
chain: TCTAACGTGAATGATAGACGTTACGTGTCTACACTATGTCGAGTTGCTGTGTGCCGATGAACGTGGGAT
modifications: chemistry not given here
[6]; DVP resin, L-vasopressin
  elution from the DVP resin by L-vasopressin: not eluted from the DVP resin by L-vasopressin
[6]
  binding to DVP: appears to bind DVP better than does the parent sequence
